Test results as given in patent US20210040232A1.

Key:
[1] = molecular target: human CTLA-4 (amino acids M1-N223) on stably transfected VI-fibroblast cells (human) (UniProt P16410); assay: ECL cell binding, VI-fibroblast/hCTLA-4 cells
[2] = molecular target: hCTLA-4 extracellular domain (aa 1-161) fused to the trans-membrane and cytoplasmic domain of hCD300a (aa 181-299), on Jurkat/NFAT-Luc cells (human) (UniProt Q9UGN4); assay: cell-based or functional assay
[3] = molecular target: mf CTLA-4 extracellular domain (aa 1-161) fused to the trans-membrane and cytoplasmic domain of hCD300a (aa 181-299), on Jurkat/NFAT-Luc cells (Macaca fascicularis; human) (UniProt G7PL88); assay: cell-based or functional assay
Chain of mf CTLA-4 extracellular domain (aa 1-161) fused to the trans-membrane and cytoplasmic domain of hCD300a (aa 181-299), on Jurkat/NFAT-Luc cells (Macaca fascicularis; human) (Q9UGN4 other isoform, or with tags, fused parts or gaps, form in doubt): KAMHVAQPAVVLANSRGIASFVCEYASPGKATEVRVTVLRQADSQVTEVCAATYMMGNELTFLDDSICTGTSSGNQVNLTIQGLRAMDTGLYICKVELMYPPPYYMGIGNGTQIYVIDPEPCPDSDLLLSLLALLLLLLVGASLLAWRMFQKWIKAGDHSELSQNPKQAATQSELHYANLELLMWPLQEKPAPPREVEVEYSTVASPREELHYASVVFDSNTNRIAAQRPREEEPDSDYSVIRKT

Chain of human CTLA-4 (amino acids M1-N223) on stably transfected VI-fibroblast cells (human) (P16410 36-223 limits assumed): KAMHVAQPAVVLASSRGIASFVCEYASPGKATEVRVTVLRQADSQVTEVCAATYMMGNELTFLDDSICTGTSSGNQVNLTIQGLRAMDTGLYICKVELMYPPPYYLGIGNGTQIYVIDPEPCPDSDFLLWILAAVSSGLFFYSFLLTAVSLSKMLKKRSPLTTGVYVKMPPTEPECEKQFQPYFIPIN
Chain of hCTLA-4 extracellular domain (aa 1-161) fused to the trans-membrane and cytoplasmic domain of hCD300a (aa 181-299), on Jurkat/NFAT-Luc cells (human) (Q9UGN4 other isoform, or with tags, fused parts or gaps limits assumed, form in doubt): as the sequence (Q9UGN4 other isoform, or with tags, fused parts or gaps, form in doubt) above, with N14S, M106L counted along it

ratio of RLU signal to parental VI-fibroblast at 0.4 nM Ab [1]	Fold induction of IL-2 at 100 nM, APC HEK293/hCD20/hCD80 (isotype control) [2]	Fold induction of IL-2 at 100 nM, APC HEK293/hCD20/hCD86 (isotype control) [3]	ratio of RLU signal to parental VI-fibroblast at 0.6 nM Ab [1]	Substance
1	0.8 fold	1.1 fold	–	hIgG1 Isotype Control (antibody)
–	1 fold	1 fold	–	hIgG2 Isotype (antibody)
–	–	–	1	mIgG2 Isotype Control (antibody)
